{"source": "patent US20230052646A1", "about": "(JJP BIOLOGICS SP Z O O, published 2023)", "key": {"[1]": {"molecular_target": "T1, membrane-bound 'CRD1 truncated' human HVEM on transiently transfected HEK293F cells (human, UniProt Q92956 76-283)", "T1 construct": "aa 1-19 are a mouse Ig signal peptide and are left out; Starts with CRD2; also called human HVEM deleted for CRD1; CRD1 truncated HVEM", "T1 sequence": "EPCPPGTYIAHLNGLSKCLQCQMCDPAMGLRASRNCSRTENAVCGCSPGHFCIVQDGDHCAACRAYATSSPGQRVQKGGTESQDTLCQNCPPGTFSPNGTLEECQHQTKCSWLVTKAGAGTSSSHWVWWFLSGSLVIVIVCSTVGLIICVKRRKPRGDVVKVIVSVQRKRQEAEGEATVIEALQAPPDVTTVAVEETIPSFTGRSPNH", "assay": "FACS, undiluted hybridoma supernatant, CRD1 truncated HVEM on HEK293F", "method": "(§1) Generation of human ‘full-length’ HVEM-transfected HEK293F cells (clone no. 128) is described in Example 1a. […] After 72 hours, surface human HVEM expression on transfected cells was analysed by FACS analysis. To this end, stable human full-length HVEM-transfected HEK293F cells and transient human ‘CRD1 truncated’ HVEM-transfected HEK293F cells were put at 10×10⁶ cells/mL in ice-chilled phosphate-buffered saline containing 0.1% BSA (Sigma)/0.05% NaN₃ (PBS/BSA/NaN₃) supplemented with 50 μg/mL human IgGs (blocking of possible Fcγ receptors; Sigma) for 10 minutes at 4° C. Then, 10 μL/tube (i.e., 0.1×10⁶ cells) of these cells were incubated with 100 μL undiluted hybridoma supernatant/tube for 30 minutes at 4° C. Phycoerythrin (PE)-conjugated mouse anti-human HVEM antibody (clone eBioHVEM-122; eBioscience) at 1:20 was run as a positive control antibody. After extensive washing in PBS/BSA/NaN₃, cells were subsequently incubated with 1:200 diluted PE-conjugated goat anti-mouse IgG Fcγ-specific antibodies (Jackson ImmunoResearch) for 30 minutes at 4° C. After extensive washing in PBS/BSA/NaN₃, cells were fixed in 2% formaldehyde in PBS/BSA/NaN₃ for 30 minutes at 4° C. Binding of antibodies was measured using a flow cytometer (model FACSCalibur; BD Biosciences)."}, "[2]": {"molecular_target": "T2, membrane-bound full-length human HVEM on stable HVEM-transfected HEK293F cells (clone no. 128) (human, UniProt Q92956 39-283)", "T2 construct": "The same cDNA was also expressed on Sf9 insect cells; also called TNFRSF14; CD270", "T2 sequence": "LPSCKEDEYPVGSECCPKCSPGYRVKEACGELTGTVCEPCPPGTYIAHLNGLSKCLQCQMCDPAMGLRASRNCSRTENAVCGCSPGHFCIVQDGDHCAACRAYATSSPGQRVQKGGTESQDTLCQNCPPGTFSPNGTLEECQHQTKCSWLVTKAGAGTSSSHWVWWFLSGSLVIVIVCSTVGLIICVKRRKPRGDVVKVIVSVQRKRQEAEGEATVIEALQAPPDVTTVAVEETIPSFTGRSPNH", "assay": "FACS titration on HVEM-HEK293F, half-maximum binding", "method": "In order to determine the relative binding affinity of purified BTLA/HVEM blocking chimeric mouse/human anti-human HVEM antibodies no. 36H12, 45H6, 48H6, 11H7, and 49G4 for human HVEM, FACS analysis was used.\nTo this end, stable human full-length HVEM-transfected HEK293F cells (clone no. 128; see Example 1(a) above) were put at 10×10⁶ cells/mL in ice-chilled PBS containing 0.1% BSA (Sigma)/0.05% NaN₃ (PBS/BSA/NaN₃) supplemented with 50 μg/mL human IgGs (blocking possible Fcγ receptors; Sigma) for 10 minutes at 4° C. Then, 10 μL/tube (i.e., 0.1×10⁶ cells) of these cells were incubated with or without 100 μL titrated (in PBS/BSA/NaN₃) purified BTLA/HVEM blocking chimeric mouse/human anti-human HVEM antibody/tube for 30 minutes at 4° C. After extensive washing in PBS/BSA/NaN₃, cells were subsequently incubated with 1:200 diluted PE-conjugated goat anti-human IgG Fcγ-specific antibodies (Jackson ImmunoResearch) for 30 minutes at 4° C. After extensive washing in PBS/BSA/NaN₃, cells were fixed in 4% formaldehyde in PBS/BSA/NaN₃ for 30 minutes at 4° C. Binding (geo-mean fluorescence intensity) of chimeric mouse/human anti-human HVEM antibodies no. 36H12, 45H6, 48H6, 11H7, and 49G4 on membrane human HVEM was measured using a flow cytometer (FACSCalibur; BD Biosciences). For comparison, purified BTLA/HVEM blocking mouse anti-human HVEM antibody counterparts no. 36H12, 45H6, 48H6, 11H7, and 49G4 were run in parallel, and their binding was monitored as described in Example 2 (a)."}, "[3]": {"molecular_target": "T3, membrane-bound full-length cynomolgus monkey HVEM on transiently transfected HEK293F cells (cynomolgus monkey (Macaca fascicularis))", "T3 construct": "also called cynomolgus HVEM", "T3 chain": "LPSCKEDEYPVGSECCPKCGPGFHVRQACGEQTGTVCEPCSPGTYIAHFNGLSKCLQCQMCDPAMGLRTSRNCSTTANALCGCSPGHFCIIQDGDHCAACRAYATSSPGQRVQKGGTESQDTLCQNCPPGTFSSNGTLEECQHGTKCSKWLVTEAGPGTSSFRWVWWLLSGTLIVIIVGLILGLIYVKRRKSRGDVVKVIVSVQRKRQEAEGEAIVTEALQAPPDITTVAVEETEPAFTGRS", "assay": "FACS, undiluted hybridoma supernatant", "method": "as §1, with “surface cynomolgus monkey” for “surface human”, “transient cynomolgus monkey full-length” for “transient human ‘CRD1 truncated’”"}}, "data": [{"binder": "mouse anti-human HVEM antibody no. 36H12 (antibody, mouse IgG1, V domains shown, mouse IgG1/kappa; also called 36H12 (mouse)) VH: EVQLQQSGAGLVKPGASVKLSCTASGFNIKDTYMHWVRQRPEQGLEWIGRIDPATANTKYDPKFQGKATLTTDTSSNTAYLQLSSLTSEDTAVYYCVTYGYDVSWFAYWGLGALVTVSA VL: DVLMTQTPLSLPVSLGDQASISCRSSQSIVHSNGITYLEWYLQKPGQSPKLLIYKVSNRFSGVPDRFSGSGSGTDFTLKISRVEAEDLGVYYCFQGSHVPLTFGAGTKLELK", "values": [{"measurement": "binding result", "setting": "[1]", "result": "no binding"}, {"measurement": "EC50", "setting": "[2]", "result": 0.43, "unit": "µg/mL"}, {"measurement": "binding result", "setting": "[3]", "result": "no binding"}]}]}
